The values that follow come from US20230002458A1 (ALPHABETA, published 2023).

Changes are numbered by the printed parent chain. Names may count otherwise.

Series [1] concerns the target T1, rh wt Bri2 BRICHOS-mCherry oligomers (human, UniProt A5A6H8 113-231 (Pan troglodytes entry)).
T1 sequence: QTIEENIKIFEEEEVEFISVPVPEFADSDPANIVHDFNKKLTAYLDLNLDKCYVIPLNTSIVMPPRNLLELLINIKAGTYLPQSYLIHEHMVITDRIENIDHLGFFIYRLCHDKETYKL
Put plainly: cell-based or functional assay.

Series [2] concerns the molecule itself. Nature of the series: size exclusion chromatography, self-association.

B1: rh Bri2 BRICHOS R221E monomer (other)
chain: T1 sequence with R109E
Consider B1, for which the “release of wt monomers from oligomers after co-incubation” value in series [1] was ~2 molar ratio mutant:wt.

B2: rh wt Bri2 BRICHOS (other)
chain: T1 sequence
notes: also called Bri2 BRICHOS [Bri2(113-231)]; wt protein
Consider B2, for which the binding result in series [2] is “binds”.
